From patent publication US20160194394A1 (GOVERNING COUNCIL OF THE UNIVERSITY OF TORONTO, published 2016)
Read-outs that look alike come from different tables or passages of the source.

T1: human Fzd5-Fc
T1 construct: also called FZD5 ECD; Fzd5 CRD-Fc fusion protein (R&D systems); not shown: exact vendor limits of the CRD construct
T1 chain: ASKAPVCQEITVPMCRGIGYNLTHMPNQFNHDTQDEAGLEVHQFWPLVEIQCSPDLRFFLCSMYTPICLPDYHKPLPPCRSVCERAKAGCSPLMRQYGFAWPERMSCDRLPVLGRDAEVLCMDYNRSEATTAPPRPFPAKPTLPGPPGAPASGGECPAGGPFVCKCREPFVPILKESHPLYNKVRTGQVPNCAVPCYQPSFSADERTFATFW

T2: human Fzd8-Fc
T2 construct: also called FZD8 ECD; Fzd8 CRD-Fc fusion protein (R&D systems); not shown: exact vendor limits of the CRD construct
T2 chain: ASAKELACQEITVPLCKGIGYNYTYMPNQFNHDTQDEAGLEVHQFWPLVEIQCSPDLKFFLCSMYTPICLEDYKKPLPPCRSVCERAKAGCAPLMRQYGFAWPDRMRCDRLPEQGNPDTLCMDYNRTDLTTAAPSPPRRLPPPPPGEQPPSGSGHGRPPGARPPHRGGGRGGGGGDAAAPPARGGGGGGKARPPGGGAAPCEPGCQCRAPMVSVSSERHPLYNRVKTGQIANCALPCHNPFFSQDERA


Legend:
[1] = biological target: T3, recombinant Frizzled receptor 7 (FZD7) cysteine-rich domain (CRD) fused to the Fc region of human IgG (human, UniProt O75084 33-185); test: competitive ELISA, detected phage-Fab A1
[2] = biological target: T3, recombinant Frizzled receptor 7 (FZD7) …; test: competitive ELISA, detected phage-Fab G6
[3] = biological target: T3, recombinant Frizzled receptor 7 (FZD7) …; test: ELISA, 1ug/ml (20nM) Fab [cont'd]
Summary of the method: (§1)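 Plates coated with 2 ug/ml FZD7-Fc or Fc protein were probed with bacterially expressed purified Fabs for 1 h at room temperature in 0.5% BSA/0.05% Tween20/PBS. Bound Fab detected with anti-FLAG-HRP for 45 min, developed with TMB and acid stop, and read as absorbance at 450 nm; n.t. = not tested.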

[4] = biological target: T3, recombinant Frizzled receptor 7 (FZD7) …; test: competitive ELISA, detected phage-Fab E8
[5] = biological target: T4, FZD7 receptor expressed on cells (full-length) (UniProt O75084 33-574, limits assumed); test: flow cytometry, 200 nM Fab, MDA MB 231 [cont'd]
T4 construct: whole, on cells; MDA MB 231 cells may carry other Frizzled receptors too; also called full-length FZD7 receptor; endogenous receptor on MDA MB 231 cells
Summary of the method: (§2)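 EDTA-harvested MDA MB 231 cells, either FZD7-overexpressing or with endogenous receptor, were blocked in 2% FBS/PBS and stained with Fab for 30 min on ice. Detection used anti-F(ab′)₂-APC (1:1000, 15 min on ice), then 1% paraformaldehyde fixation and flow cytometry. Values are percent of cells in positive gates.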

[6] = biological target: T3, recombinant Frizzled receptor 7 (FZD7) …; test: competitive ELISA, detected phage-Fab H10
[7] = biological target: T3, recombinant Frizzled receptor 7 (FZD7) …; test: competitive ELISA, detected phage-Fab H3
[8] = biological target: T3, recombinant Frizzled receptor 7 (FZD7) …; test: competitive ELISA, detected phage-Fab E4
mouse Fzd2-Fc = biological target: T5, mouse Fzd2-Fc; test: SPR
T5 construct: also called mFZD2 ECD; Fzd2 CRD-Fc fusion protein (R&D systems); not shown: exact vendor limits of the CRD construct
T5 sequence (chain, as listed by the source limits assumed): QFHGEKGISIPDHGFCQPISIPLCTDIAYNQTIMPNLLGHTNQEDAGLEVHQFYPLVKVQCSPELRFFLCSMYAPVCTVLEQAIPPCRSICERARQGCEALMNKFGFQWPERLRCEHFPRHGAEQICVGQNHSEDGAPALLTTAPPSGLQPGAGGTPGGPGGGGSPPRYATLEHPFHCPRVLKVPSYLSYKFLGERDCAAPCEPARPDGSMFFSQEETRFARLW

human Fzd5-Fc = biological target: T1, human Fzd5-Fc; test: SPR
[9] = biological target: T3, recombinant Frizzled receptor 7 (FZD7) …; test: SPR
human Fzd8-Fc = biological target: T2, human Fzd8-Fc; test: SPR
human Fzd1-Fc = biological target: T6, human Fzd1-Fc; test: SPR
T6 construct: also called FZD1 ECD; Fzd1 CRD-Fc fusion protein (R&D systems); not shown: exact vendor limits of the CRD construct
T6 sequence (chain, as listed by the source limits assumed): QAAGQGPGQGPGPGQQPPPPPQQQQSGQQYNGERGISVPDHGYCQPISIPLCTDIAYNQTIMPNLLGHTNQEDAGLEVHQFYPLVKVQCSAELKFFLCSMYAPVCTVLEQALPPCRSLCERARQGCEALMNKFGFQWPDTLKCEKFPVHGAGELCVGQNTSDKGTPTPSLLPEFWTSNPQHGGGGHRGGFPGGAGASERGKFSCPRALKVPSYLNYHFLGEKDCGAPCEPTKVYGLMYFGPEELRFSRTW

[10] = biological target: T3, recombinant Frizzled receptor 7 (FZD7) …; test: competitive ELISA, detected phage-Fab G2
[11] = biological target: T3, recombinant Frizzled receptor 7 (FZD7) …; test: competitive ELISA, detected phage-Fab H1
[12] = biological target: T3, recombinant Frizzled receptor 7 (FZD7) …; test: SPR; remark: listed apart in the source
[13] = biological target: T4, FZD7 receptor expressed on cells …; test: cell-based or functional assay
[14] = biological target: T3, recombinant Frizzled receptor 7 (FZD7) …; test: ELISA, 10ug/ml (200nM) Fab [cont'd]
Summary of the method: as §1

[15] = biological target: T3, recombinant Frizzled receptor 7 (FZD7) …; test: competitive ELISA, detected phage-Fab D10
[16] = biological target: T4, FZD7 receptor expressed on cells …; test: flow cytometry, 200 nM Fab, FZD7 over-expression line (MDA MB 231) [cont'd]
Summary of the method: as §2

[17] = biological target: recombinant Frizzled receptor 7 (FZD7) cysteine-rich domain (CRD) fused to the Fc region of human IgG (human, UniProt O75084 33-185); test: SPR; remark: listed apart in the source
[18] = biological target: T4, FZD7 receptor expressed on cells …; test: cell-based or functional assay; remark: listed apart in the source

% of Fab phage in presence of 750 nM Fab [1] [%] | % of Fab phage in presence of 750 nM Fab [2] [%] | OD 450 [3] | % of Fab phage in presence of 750 nM Fab [4] [%] | % population within the positive gate [5] [%] | % of Fab phage in presence of 750 nM Fab [6] [%] | % of Fab phage in presence of 750 nM Fab [7] [%] | % of Fab phage in presence of 750 nM Fab [8] [%] | Kd (mouse Fzd2-Fc) [nM] | Kd [9] [nM] | Kd (human Fzd1-Fc) [nM] | % of Fab phage in presence of 750 nM Fab [10] [%] | % of Fab phage in presence of 750 nM Fab [11] [%] | Kd [12] [nM] | koff [12] [s⁻¹] | kon [12] [M⁻¹ s⁻¹] | decrease in Wnt 3a-induced transcriptional activity (TOP-FLASH luciferase reporter in MDA MB 231 cells, 400 nM Fab) [13] [%] | OD 450 [14] | % of Fab phage in presence of 750 nM Fab [15] [%] | % population within the positive gate [16] [%] | also measured | Binder
6.5 | 7.4 | 3.24 | 5.9 | 98.8 | 3.2 | 10.5 | 5.1 | 0.65 | 0.42 | 0.33 | 4.6 | 21.9 | 0.422 | 0.000803 | 1.9e+06 | > 70 | 3.27 | 6.1 | 93.4 | Kd (human Fzd5-Fc): 1.43 nM; Kd (human Fzd8-Fc): 0.88 nM | Fab E4 (Fab) chain 1: EVQLVESGGGLVQPGGSLRLSCAASGFNLSYYSMHWVRQAPGKGLEWVASIYPSYGYTYYADSVKGRFTISADTSKNTAYLQMNSLRAEDTAVYYCARPSPGSYHGMDYWGQGTLVTVSSASTKGPSVFPLAPSSKSTSGGTAALGCLVKDYFPEPVTVSWNSGALTSGVHTFPAVLQSSGLYSLSSVVTVPSSSLGTQTYICNVNHKPSNTKVDKKVEPKSC chain 2: DIQMTQSPSSLSASVGDRVTITCRASQSVSSAVAWYQQKPGKAPKLLIYSASSLYSGVPSRFSGSRSGTDFTLTISSLQPEDFATYYCQQSSYSLITFGQGTKVEIKRTVAAPSVFIFPPSDSQLKSGTASVVCLLNNFYPREAKVQWKVDNALQSGNSQESVTEQDSKDSTYSLSSTLTLSKADYEKHKVYACEVTHQGLSSPVTKSFNRGECGGS
 |  |  |  |  |  |  |  |  |  |  |  |  |  |  |  |  |  |  |  | Kd [17]: 0.3 nM | IgG G6 (antibody, V domains shown, Fab converted into full-length IgG1, made in 293F cells) VL: DIQMTQSPSSLSASVGDRVTITCRASQSVSSAVAWYQQKPGKAPKLLIYSASSLYSGVPSRFSGSRSGTDFTLTISSLQPEDFATYYCQQYYSLFTFGQGTKVEIK VH: EVQLVESGGGLVQPGGSLRLSCAASGFNIYYYSMHWVRQAPGKGLEWVAYISPSYGYTYYADSVKGRFTISADTSKNTAYLQMNSLRAEDTAVYYCARGYFYSWGGMDYWGQGTLVTVSS
 |  |  |  |  |  |  |  |  |  |  |  |  |  |  |  |  |  |  |  | IC50, Wnt3a-induced Top Flash reporter (% ligand mediated) [18]: 106 nM | IgG E8 (antibody, V domains shown) VH: EVQLVESGGGLVQPGGSLRLSCAASGFNIYSSYIHWVRQAPGKGLEWVAYIYSYSGYTYYADSVKGRFTISADTSKNTAYLQMNSLRAEDTAVYYCARWYHPYWYASAIDYWGQGTLVTVSS VL: DIQMTQSPSSLSASVGDRVTITCRASQSVSSAVAWYQQKPGKAPKLLIYSASSLYSGVPSRFSGSRSGTDFTLTISSLQPEDFATYYCQQVSGGGGLITFGQGTKVEIK
4.5 | 10.4 | 3.2 | 6.7 | 99 | 4.3 | 18.3 | 12 | 0.57 | 0.54 | 0.64 | 4.5 | 8.5 | 0.537 | 0.000457 | 852000 | > 70 | 3.19 | 4.7 | 94.7 |  | Fab H1 (Fab) chain 1: EVQLVESGGGLVQPGGSLRLSCAASGFNISSSYIHWVRQAPGKGLEWVAYIYSSYGSTYYADSVKGRFTISADTSKNTAYLQMNSLRAEDTAVYYCARASWYALDYWGQGTLVTVSSASTKGPSVFPLAPSSKSTSGGTAALGCLVKDYFPEPVTVSWNSGALTSGVHTFPAVLQSSGLYSLSSVVTVPSSSLGTQTYICNVNHKPSNTKVDKKVEPKSC chain 2: DIQMTQSPSSLSASVGDRVTITCRASQSVSSAVAWYQQKPGKAPKLLIYSASSLYSGVPSRFSGSRSGTDFTLTISSLQPEDFATYYCQQYWYGVAPITFGQGTKVEIKRTVAAPSVFIFPPSDSQLKSGTASVVCLLNNFYPREAKVQWKVDNALQSGNSQESVTEQDSKDSTYSLSSTLTLSKADYEKHKVYACEVTHQGLSSPVTKSFNRGECGGS
